The target of data set [1] is T1, WRKY50BD (Arabidopsis thaliana, UniProt Q8VWQ5 86-173). In words: competition; 4000-fold excess against labelled S1; EMSA with 3' biotin-labelled probes (LightShift kit detection); buffer, salt, pH and temperature not given (earlier protocols cited). As to conditions: protein: recombinant; label: unlabelled.
The target of data set [2] is T2, WRKY70 (Arabidopsis thaliana, UniProt Q9LY00 1-294).
T2 sequence: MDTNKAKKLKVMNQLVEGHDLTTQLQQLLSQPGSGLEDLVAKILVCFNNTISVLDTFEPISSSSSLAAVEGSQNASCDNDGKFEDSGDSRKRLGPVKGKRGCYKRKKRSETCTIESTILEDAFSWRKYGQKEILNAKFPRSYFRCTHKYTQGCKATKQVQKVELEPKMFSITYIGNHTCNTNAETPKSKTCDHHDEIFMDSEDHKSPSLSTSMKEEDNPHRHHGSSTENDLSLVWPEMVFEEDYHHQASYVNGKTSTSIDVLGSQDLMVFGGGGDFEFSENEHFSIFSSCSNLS
In words: EMSA; shift abolished or strongly reduced by 4000-fold unlabelled S2; EMSA with 3' biotin-labelled probes (LightShift kit detection); buffer, salt, pH and temperature not given (earlier protocols cited). As to conditions: protein: recombinant; label: 3' biotin (probe).

The target of data set [3] is T1, WRKY50BD. Described as above. As to conditions: protein: recombinant; label: 3' biotin (probe).
Data set [4] has as its target T2, WRKY70. Briefly: competition; 4000-fold excess against labelled S2; EMSA with 3' biotin-labelled probes (LightShift kit detection); buffer, salt, pH and temperature not given (earlier protocols cited). As to conditions: protein: recombinant; label: unlabelled.
In data set [5] the target is T1, WRKY50BD. The description is as above. As to conditions: protein: recombinant; label: unlabelled.
In data set [6] the target is T2, WRKY70. In words: EMSA; EMSA with 3' biotin-labelled probes (LightShift kit detection); buffer, salt, pH and temperature not given (earlier protocols cited). As to conditions: protein: recombinant; label: 3' biotin (probe).
Data set [7] has as its target T1, WRKY50BD. In words: EMSA; shift abolished or strongly reduced by 4000-fold unlabelled S1; EMSA with 3' biotin-labelled probes (LightShift kit detection); buffer, salt, pH and temperature not given (earlier protocols cited). As to conditions: protein: recombinant; label: 3' biotin (probe).

T1 sequence (Q8VWQ5 86-173): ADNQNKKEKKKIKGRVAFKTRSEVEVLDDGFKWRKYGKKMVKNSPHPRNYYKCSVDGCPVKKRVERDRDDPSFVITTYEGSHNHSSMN

B1: S1mut1 (dsDNA)
DNA 1: CACATTTACATTGCAGTCCCTCTTGCATGCCGTC
DNA 2: GACGGCATGCAAGAGGGACTGCAATGTAAATGTG
On to B1, for which, in the data set with WRKY50BD [1], the binding result is on record as “no binding”.

B2: S2 (dsDNA)
DNA 1: ATCGTCTAAGAGACGACTTTTCTCGTAACTTTAT
DNA 2: ATAAAGTTACGAGAAAAGTCGTCTCTTAGACGAT
On to B2, for which the binding result with WRKY70 [2] and with WRKY50BD [3] was “binds” throughout.

B3: S2mut1 (dsDNA)
DNA 1: ATCGTCTAAGAGACAGTCCCTCTCGTAACTTTAT
DNA 2: ATAAAGTTACGAGAGGGACTGTCTCTTAGACGAT
Regarding B3, the binding result with WRKY70 [4] and with WRKY50BD [5] was “no binding” throughout.

B4: S1 (dsDNA)
DNA 1: CACATTTACATTGCGACTTTTCTTGCATGCCGTC
DNA 2: GACGGCATGCAAGAAAAGTCGCAATGTAAATGTG
For the molecule B4, the binding result with WRKY70 [6] was “no binding”; with WRKY50BD [7], “binds”.

These data come from article PMC9513909, “Genomic distribution and context dependent functionality of novel WRKY transcription factor binding sites”.
